The series can be described thus: amyloid nucleation score (Sup35N fusion, yeast selection) (log enrichment); library NNK3; higher = more nucleation; inactive = no reads after selection. The method in brief: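 Using DiMSum, nucleation scores were taken as the log enrichment of output over input reads, centred on the mode score of non-aggregating sequences. The input and output reads came from Illumina sequencing of plasmid inserts, with sequences under 100 input reads excluded. The yeast were psi-negative, expressed Sup35N fused to peptides of 20 random codons, were induced with 100 μM copper sulfate for 24 hours, and were grown 7 days at 30°C on medium lacking adenine and uracil.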

We go through 54 substances from the supplement of paper PMC12042874.

± gives the uncertainty stated by the source.

On to WIVLQTSNSRLMQWGAP, for which the amyloid nucleation score was found to be 0.618 ± 0.27.
Under SIEMQYNDMRLR stands “inactive”; under PVWLCSLPR, “inactive”.
Under SLVEAGMFTQFS stands “inactive”.
Under DEAMEDFEWRRMGLV stands “inactive”; under SQLLYI, “inactive”; under FQNPFTPFGLVVRYVPWLCW, “inactive”.
For the substance RFVGVATTSFLTVTFGLVCE, the amyloid nucleation score result was “inactive”.
Then AYADGYNLFWDYK, with “inactive”; and SDQFLIMEDSCSTPGRRSFK, with 0.408 ± 0.29; and LLVESMDGGRPILQDGLFKY, with “inactive”.
Under SNSMS stands “inactive”; under VDVLFC, “inactive”; under HDLNWNSMVRCRVNVSSVIV, “inactive”.
Then YEAFADRTPLVFAHSWSMLK, with “inactive”; and IMRMRLVCWTYKYNSLLPFV, with “inactive”.
Take MIFSRAISDGSFLTVFV: the amyloid nucleation score was -0.32 ± 0.8.
For SITRELGNETLYSLLGPRAF, the amyloid nucleation score entry is “inactive”.
For the substance VGTDDVIICILSVKFPLIRP, the amyloid nucleation score entry is “inactive”.
As for LVRLGMQRCRPLT, the amyloid nucleation score entry was “inactive”.
SVHWSINWTGLERVSRTQRL gave an amyloid nucleation score of 0.523 ± 0.24.
Then MIIYVKLPYRCLFFERHSDT, with “inactive”; and GDCCHMADKTGGGTNRQIYH, with “inactive”.
Under KFTMTPWDPLCLCVRSDIDL stands “inactive”; under SGRRCKAICA, “inactive”; under FGFIILDLTR, “inactive”.
Under QYNPLDCCNVRLKLYGPLMV stands “inactive”.
As for CGIYTFLRLRD, the amyloid nucleation score result was “inactive”.
Under RTLTSDTHIRFLDQLSRYIW stands “inactive”.
Under GVMMVMFARL stands 1.73 ± 0.091.
Regarding TCFKM, the amyloid nucleation score entry was “inactive”.
Then DKRDNMYICVCRYCHETWCI, with -0.397 ± 0.66; and QAVTMRTGVKCYQIGRAWIG, with -0.313 ± 0.84.
Under ANLSRSSTLLSGVWSEV stands “inactive”; under MVGGVHCLSSVLRRWAAGRR, -0.676 ± 1.7.
Under SSDECV stands “inactive”; under LYSAGLNEFLL, “inactive”.
Regarding KYICET, the amyloid nucleation score entry is “inactive”.
For the substance IRRRLEMLNTSLYSHI, the amyloid nucleation score entry is “inactive”.
Take AKWVLDFVKDRLPFRFCMLV: the amyloid nucleation score result was “inactive”.
Then ACIVARARSSVVTCF, with “inactive”.
Then TRVLSTSGFNQRPNCWFSTM, with “inactive”; and GKDVSVGEVFKPLVSVRRVN, with “inactive”.
Then VTRCCPMWD, with -0.702 ± 2.5; and DNPTYRYTICGMTLEHPKEE, with “inactive”; and NNDIVKGSPPPWVMFLVALH, with “inactive”.
As to EELLRGFGAVGSWLNLSLEV, the amyloid nucleation score entry was “inactive”.
Then TASYSLVVVVENRKSCMVDN, with “inactive”; and TDLIIIRRPNFGKRGSGLGV, with “inactive”.
Then VGQTCFTIMMVV, with “inactive”; and LSTYPDI, with “inactive”.
With LWDWVYFAYDRVYLVLCSSC, the amyloid nucleation score result was “inactive”.
Under LLLSSILRYS stands “inactive”; under KLWKWNTGNSVVVLGLMSGV, “inactive”.
